The experiment concerns the target T1, soluble Atg1 (Atg1 complex purified from yeast, released from the beads by TEV protease cleavage) (S. cerevisiae, UniProt P53104 1-897).
T1 construct: Atg1 serine-threonine kinase, S. cerevisiae; only Atg1 was detected (anti-Atg1 blot) in the pull-down; also called soluble Atg1 kinase; soluble Atg1 complex
T1 sequence (looked up): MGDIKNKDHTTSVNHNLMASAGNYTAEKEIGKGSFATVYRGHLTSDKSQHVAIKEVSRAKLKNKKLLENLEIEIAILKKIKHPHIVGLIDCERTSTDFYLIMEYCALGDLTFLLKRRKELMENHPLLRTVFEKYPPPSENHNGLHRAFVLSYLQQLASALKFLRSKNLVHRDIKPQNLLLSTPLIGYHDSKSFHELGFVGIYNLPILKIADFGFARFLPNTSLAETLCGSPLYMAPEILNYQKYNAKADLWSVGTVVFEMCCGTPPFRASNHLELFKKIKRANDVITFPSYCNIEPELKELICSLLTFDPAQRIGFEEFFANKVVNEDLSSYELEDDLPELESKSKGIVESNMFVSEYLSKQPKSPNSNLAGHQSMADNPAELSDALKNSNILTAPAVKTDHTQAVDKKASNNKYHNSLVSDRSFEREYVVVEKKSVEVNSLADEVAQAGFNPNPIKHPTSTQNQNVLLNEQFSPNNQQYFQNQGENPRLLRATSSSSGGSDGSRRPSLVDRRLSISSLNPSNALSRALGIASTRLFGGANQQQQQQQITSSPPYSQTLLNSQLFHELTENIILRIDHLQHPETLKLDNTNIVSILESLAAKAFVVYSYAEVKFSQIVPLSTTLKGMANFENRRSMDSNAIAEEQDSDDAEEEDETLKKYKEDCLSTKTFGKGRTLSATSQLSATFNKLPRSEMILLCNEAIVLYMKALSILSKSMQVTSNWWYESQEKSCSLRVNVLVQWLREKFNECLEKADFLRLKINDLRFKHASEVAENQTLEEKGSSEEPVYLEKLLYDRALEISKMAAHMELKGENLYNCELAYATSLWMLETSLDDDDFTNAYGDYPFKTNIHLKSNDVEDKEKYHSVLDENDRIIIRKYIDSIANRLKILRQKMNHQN
As to the kind of experiment: pull-down; GST fusion proteins from E. coli immobilized on beads, incubated with soluble Atg1; bound protein by anti-Atg1 western blotting. The note with it: both partners purified. In general terms: In western blotting, separated proteins are transferred to a membrane and probed.

Residue numbers refer to the chain shown, from its start.

B1: GST-Atg9^757–997 wild-type (domain or fragment, S. cerevisiae, UniProt Q12142 757-997, looked up)
chain: RENSEYVDGLGYVCKYAMFNMKNIDGEDTHSMDEDSLTKKIAVNGSHTLNSKRRSKFTAEDHSDKDLANNKMLQSYVYFMDDYSNSENLTGKYQLPAKKGYPNNEGDSFLNNKYSWRKQFQPGQKPELFRIGKHALGPGHNISPAIYSTRNPGKNWDNNNNGDDIKNGTNNATAKNDDNNGNNDHEYVLTESFLDSGAFPNHDVIDHNKMLNSNYNGNGILNKGGVLGLVKEYYKKSDVGR
notes: Atg9, S. cerevisiae, C-terminal fragment, amino acids 757-997; also called C-terminal fragment of Atg9 (amino acids 757–997); recombinant Atg9 C-terminal fragment; source: E. coli, immobilized on beads
On to B1, for which the binding result is “binds”.

B2: GST-Atg9^757–997 4A mutant (domain or fragment, S. cerevisiae, UniProt Q12142 757-997, looked up)
chain: B1 chain with S46A, S75A, S192A, S213A
notes: Atg9, S. cerevisiae, C-terminal fragment, amino acids 757-997, 4A mutant; source: E. coli, immobilized on beads
For B2, the binding result is recorded as “binds”.

The record behind these values is paper PMC3978657, “Early Steps in Autophagy Depend on Direct Phosphorylation of Atg9 by the Atg1 Kinase” (Molecular Cell, 2014).
